These results are taken from article PMC4853763.

In the test the target is E6/e6ap complex with the wt e6ap(1-16) peptide construct (HPV16 | human) (UniProt P03126). The test is described as follows: ITC.

As for “p53 core (DNA binding) domain (from UniProt P04637 94-311) (domain or fragment)”, the dH was -19.1 kcal/mol and the stoichiometry N worked out at 0.516.
